# Values of other authors as cited in US20120202218A1, “DETECTION METHOD AND DEVICE BASED ON NANOPARTICLE AGGREGATION” (MODPRO AB, priority 2008, published 2012).
# Experiments:
# [1] = neutral pH
# Fab57P = settings: binding to Fab57P, literature
Substance,net charge [1],Kd (Fab57P)
H2N-NAADLEKAIEALEKHLEAKGPCDAAQLEKQLEQAFEAFERAG-COOH (H-NAADLEKAIEALEKHLEAKGPCDAAQLEKQLEQAFEAFERAG-OH) [JR2EC],−5,
H-CRGTGSYNRSSFESSSGLV-NH2 [C-pTMVP],,~1 nM
